The values that follow come from PMC7199964, “Grifolin, neogrifolin and confluentin from the terricolous polypore Albatrellus flettii suppress KRAS expression in human colon cancer cells”.

The target of one data set is KH1to4 IMP1 (UniProt Q9NZI8 195-553). Briefly: fluorescence polarization; FP: 300 nM IMP1, 10 nM probe (inhibitor assays), binding buffer stock 50 mM Tris-Cl pH 7.4, 12.5 mM EDTA pH 8, 25% glycerol, 0.01% Triton-X, 37 C 30 min; EMSA:
Particulars: protein: recombinant; label: 3' 6-FL (fluorescein).

For the next data set, the target named is KH3&4 IMP1 (KH34) (UniProt Q9NZI8 405-553). Briefly: fluorescence polarization; confluentin, no effect; FP: 300 nM IMP1, 10 nM probe (inhibitor assays), binding buffer stock 50 mM Tris-Cl pH 7.4, 12.5 mM EDTA pH 8, 25% glycerol, 0.01% Triton-X, 37 C 30 min; EMSA:
Particulars: protein: recombinant; label: 3' 6-FL (fluorescein). For orientation: Polarisation of emitted light reports the rotation of a fluorescent probe.

The target of data set [1] is T1, IMP1 wild type (UniProt Q9NZI8 1-577). Briefly: fluorescence polarization; grifolin up to 100 uM, no effect; FP: 300 nM IMP1, 10 nM probe (inhibitor assays), binding buffer stock 50 mM Tris-Cl pH 7.4, 12.5 mM EDTA pH 8, 25% glycerol, 0.01% Triton-X, 37 C 30 min; EMSA:
Particulars: protein: recombinant; label: 3' 6-FL (fluorescein).

Data set [2] has as its target T1, IMP1 wild type. Briefly: EMSA; IMP1 0-540 nM; smallest region with affinity; FP: 300 nM IMP1, 10 nM probe (inhibitor assays), binding buffer stock 50 mM Tris-Cl pH 7.4, 12.5 mM EDTA pH 8, 25% glycerol, 0.01% Triton-X, 37 C 30 min; EMSA:
Particulars: protein: recombinant; (radiolabeled). On the technique in general: A gel shift assay detects complexes by their altered migration in electrophoresis.

For data set [3], the target named is T1, IMP1 wild type. Briefly: fluorescence polarization; FP: 300 nM IMP1, 10 nM probe (inhibitor assays), binding buffer stock 50 mM Tris-Cl pH 7.4, 12.5 mM EDTA pH 8, 25% glycerol, 0.01% Triton-X, 37 C 30 min; EMSA:
Particulars: protein: recombinant; label: 3' 6-FL (fluorescein).

T1 sequence (Q9NZI8 whole entry): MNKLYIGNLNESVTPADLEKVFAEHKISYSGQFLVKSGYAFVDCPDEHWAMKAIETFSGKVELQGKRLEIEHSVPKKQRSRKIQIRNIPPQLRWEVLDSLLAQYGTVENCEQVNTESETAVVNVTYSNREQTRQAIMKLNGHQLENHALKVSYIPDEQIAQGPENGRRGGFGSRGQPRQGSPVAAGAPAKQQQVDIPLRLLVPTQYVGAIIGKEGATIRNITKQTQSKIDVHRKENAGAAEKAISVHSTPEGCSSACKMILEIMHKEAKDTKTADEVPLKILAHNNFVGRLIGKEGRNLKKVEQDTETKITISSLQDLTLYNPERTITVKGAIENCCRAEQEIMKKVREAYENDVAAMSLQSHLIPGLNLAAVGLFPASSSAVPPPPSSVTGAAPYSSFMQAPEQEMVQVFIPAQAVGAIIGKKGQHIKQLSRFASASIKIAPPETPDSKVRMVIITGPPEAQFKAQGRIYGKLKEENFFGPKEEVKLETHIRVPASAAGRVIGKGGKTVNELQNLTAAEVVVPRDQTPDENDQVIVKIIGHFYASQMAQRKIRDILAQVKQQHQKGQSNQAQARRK
Chain of KH1to4 IMP1 (Q9NZI8 195-553): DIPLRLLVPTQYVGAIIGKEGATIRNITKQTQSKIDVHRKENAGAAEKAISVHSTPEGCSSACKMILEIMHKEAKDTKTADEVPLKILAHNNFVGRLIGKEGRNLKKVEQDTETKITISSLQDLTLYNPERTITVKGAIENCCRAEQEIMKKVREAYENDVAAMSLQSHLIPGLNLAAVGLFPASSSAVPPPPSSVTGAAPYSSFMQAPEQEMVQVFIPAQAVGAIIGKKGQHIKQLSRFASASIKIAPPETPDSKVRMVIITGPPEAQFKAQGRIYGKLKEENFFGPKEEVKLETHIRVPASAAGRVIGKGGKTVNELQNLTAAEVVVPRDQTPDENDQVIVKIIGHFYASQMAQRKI
Chain of KH3&4 IMP1 (KH34) (Q9NZI8 405-553): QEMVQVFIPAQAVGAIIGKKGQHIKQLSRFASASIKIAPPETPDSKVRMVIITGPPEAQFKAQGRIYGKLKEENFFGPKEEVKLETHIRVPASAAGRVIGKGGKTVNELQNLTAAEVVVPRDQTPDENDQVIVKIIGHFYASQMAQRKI

B1: 44-nt KRAS RNA (nts 142-185) (ssRNA)
RNA: AUGGAGAAACCUGUCUCUUGGAUAUUCUCGACACAGCAGGUCAU
For B1, the binding result with KH1to4 IMP1, with KH3&4 IMP1 (KH34) and in the data set with IMP1 wild type [1] was “binds” throughout.

B2: 39-nt KRAS RNA nts 147-185 (ssRNA)
RNA: GAAACCUGUCUCUUGGAUAUUCUCGACACAGCAGGUCAU
B2: in the data set with IMP1 wild type [2], the binding result is “binds”.

B3: 39-nt CD44 RNA (nts 2862-2900) (ssRNA)
RNA: AAAUUAGGGCCCAAUUAAUAAUCAGCAAGAAUUUGAUCG
Consider B3, for which the binding result with IMP1 wild type [3] is on record as “binds”.
